# Assay results as given in the RNAGym collection of RNA variant scans (doi:10.1021/acssynbio.7b00057).
# B1: Pistol ribozyme (parent)
# chain: GGGUCGUUGUUCCAUAAUCGCGUGGAUAUGGCACGCAAGUUUCUACCGGGCACCGUAAAUGUCCGACUGGAGCCGUUCGGGCGGCUAUAAACAGACCUCAGGCCCGAAGCGUGGCGGCACCUGCCGCCGGUGGUAAAAAAGAUCGGAAGAGCACACGUCU
# Variants of: B1
# Assay: aptazyme ON/OFF ratio, guanine; higher = stronger switching; co-transcriptional cleavage with and without guanine
row,Variant,aptazyme ON/OFF ratio
1,U7C U8C G9U U10G U11C C12G C13G,1.17
2,U7C U8C G9U U10G U11C C12G C13U,1.1
3,U7C U8C G9U U10G U11C C12G C13A,1.08
4,U7C U8C G9U U11A,1.64
5,U7C U8C G9U U11G,1.16
6,U7C U8C G9U U11C,1.1
7,U7C U8C U11C C12A,1.33
8,U7C U8C U11C C12U,1.34
9,U7C U8C U11C C12G,1.16
10,U7C U8C G9U U10G U11A C13G,1.1
11,U7C U8C G9U U10G U11A C13U,1.17
12,U7C U8C G9U U10G U11A C13A,1.18
13,U7C U8C U10C C12A C13U,1.35
14,U7C U8C U10C C12A C13G,1.14
15,U7C U8C U10C C12A C13A,1.6
16,U7C U8C U10G U11C C13U,1.16
17,U7C U8C U10G U11C C13A,1.37
18,U7C U8C U10G U11C C13G,1.16
19,U7C U8C G9U U11A C12A,1.21
20,U7C U8C G9U U11A C12G,1.18
21,U7C U8C G9U U11A C12U,1.25
22,U7C U8C U10C U11A C12A C13G,1.17
23,U7C U8C U10C U11A C12A C13U,1.45
24,U7C U8C U10C U11A C12A C13A,1.33

row,Variant,aptazyme ON/OFF ratio
1,U7C U8C U11A C12U C13U,1.37
2,U7C U8C U11A C12U C13A,1.16
3,U7C U8C U11A C12U C13G,1.13
4,U7C U8C U10C U11C C12A,1.24
5,U7C U8C U10C U11C C12G,1.2
6,U7C U8C U10C U11C C12U,1.26
7,U7C U8C G9U U10G U11A C12G C13A,1.06
8,U7C U8C G9U U10G U11A C12G C13G,1.18
9,U7C U8C G9U U10G U11A C12G C13U,1.08
10,U7C U8C U10A U11C C12A C13A,1.13
11,U7C U8C U10A U11C C12A C13G,1.16
12,U7C U8C U10A U11C C12A C13U,1.15
13,U7C U8C U10C,1.26
14,U7C U8C U10G,1.98
15,U7C U8C U10A,1.35
16,U7C U8C U10C C12G C13A,1.24
17,U7C U8C U10C C12G C13U,1.2
18,U7C U8C U10C C12G C13G,1.18
19,U7C U8C U11A C13U,1.27
20,U7C U8C U11A C13A,1.21
21,U7C U8C U11A C13G,1.19
22,U7C U8C U10A U11G C12G C13A,1.25
23,U7C U8C U10A U11G C12G C13G,1.22
24,U7C U8C U10A U11G C12G C13U,1.14

row,Variant,aptazyme ON/OFF ratio
1,U7C U8C U10C U11G C12A C13U,1.52
2,U7C U8C U10C U11G C12A C13A,1.32
3,U7C U8C U10C U11G C12A C13G,1.27
4,U7C U8C U10A U11C C12U C13G,1.1
5,U7C U8C U10A U11C C12U C13A,1.08
6,U7C U8C U10A U11C C12U C13U,1.07
7,U7C U8C U10A C12U,1.12
8,U7C U8C U10A C12G,1.08
9,U7C U8C U10A C12A,1.06
10,U7C U8C U10A C13G,1.05
11,U7C U8C U10A C13A,1.06
12,U7C U8C U10A C13U,1.04
13,U7C U8C U10G C12G C13A,1.11
14,U7C U8C U10G C12G C13G,1.11
15,U7C U8C U10G C12G C13U,1.13
16,U7C U8C U10A U11C C12G C13A,1.22
17,U7C U8C U10A U11C C12G C13U,1.29
18,U7C U8C U10A U11C C12G C13G,1.22
19,U7C U8C U11G C12G C13G,1.16
20,U7C U8C U11G C12G C13U,1.09
21,U7C U8C U11G C12G C13A,1.1
22,U7C U8C U10G U11C C12A C13A,1.16
23,U7C U8C U10G U11C C12A C13U,1.15
24,U7C U8C U10G U11C C12A C13G,1.11

row,Variant,aptazyme ON/OFF ratio
1,U7C U8C U10A U11A C12G,1.24
2,U7C U8C U10A U11A C12U,1.16
3,U7C U8C U10A U11A C12A,1.19
4,U7C U8C U10C U11A,1.9
5,U7C U8C U10C U11G,1.23
6,U7C U8C U10C U11C,1.46
7,U7C U8C U10A U11A C12G C13U,1.11
8,U7C U8C U10A U11A C12G C13A,1.14
9,U7C U8C U10A U11A C12G C13G,1.21
10,U7C U8C G9U U11C C13A,1.02
11,U7C U8C G9U U11C C13U,1.02
12,U7C U8C G9U U11C C13G,1.02
13,U7C U8C G9U U10G U11G C12G,1.1
14,U7C U8C G9U U10G U11G C12U,1.1
15,U7C U8C G9U U10G U11G C12A,1.13
16,U7C U8C U10A C12A C13G,1.06
17,U7C U8C U10A C12A C13A,1.05
18,U7C U8C U10A C12A C13U,1.04
19,U7C U8C U10C U11G C12G C13G,1.13
20,U7C U8C U10C U11G C12G C13U,1.1
21,U7C U8C U10C U11G C12G C13A,1.15
22,U7C U8C U10G U11C,1.39
23,U7C U8C U10G U11G,1.49
24,U7C U8C U10G U11A,1.24

row,Variant,aptazyme ON/OFF ratio
1,U7C U8C U11A C12A,1.34
2,U7C U8C U11A C12G,1.14
3,U7C U8C U11A C12U,1.16
4,U7C U8C U10A U11A C12A C13U,1.13
5,U7C U8C U10A U11A C12A C13G,1.11
6,U7C U8C U10A U11A C12A C13A,1.1
7,U7C U8C G9U U10G U11C C12U C13A,1.12
8,U7C U8C G9U U10G U11C C12U C13U,1.18
9,U7C U8C G9U U10G U11C C12U C13G,1.09
10,U7C U8C G9U U11G C12U C13G,1.07
11,U7C U8C G9U U11G C12U C13A,1.1
12,U7C U8C G9U U11G C12U C13U,1.09
13,U7C U8C G9U U10G U11A C12A C13A,1.2
14,U7C U8C G9U U10G U11A C12A C13G,1.08
15,U7C U8C G9U U10G U11A C12A C13U,1.17
16,U7C U8C U10G U11G C12G C13U,1.14
17,U7C U8C U10G U11G C12G C13A,1.13
18,U7C U8C U10G U11G C12G C13G,1.11
19,U7C U8C U11A,1.66
20,U7C U8C U11C,2.42
21,U7C U8C U11G,1.31
22,U7C U8C G9U U11G C12G C13U,1.05
23,U7C U8C G9U U11G C12G C13G,1.14
24,U7C U8C G9U U11G C12G C13A,1.09

row,Variant,aptazyme ON/OFF ratio
1,U7C U8C U10C U11C C13U,1.38
2,U7C U8C U10C U11C C13A,1.31
3,U7C U8C U10C U11C C13G,1.28
4,U7C U8C U10G C12U C13A,1.08
5,U7C U8C U10G C12U C13U,1.13
6,U7C U8C U10G C12U C13G,1.1
7,U7C U8C U11G C12A,1.35
8,U7C U8C U11G C12U,1.25
9,U7C U8C U11G C12G,1.33
10,U7C U8C G9U U10G U11C,1.39
11,U7C U8C G9U U10G U11G,1.21
12,U7C U8C U10G C12G,1.12
13,U7C U8C U10G C12A,1.13
14,U7C U8C U10G C12U,1.11
15,U7C U8C U10G U11A C12G C13G,1.11
16,U7C U8C U10G U11A C12G C13A,1.08
17,U7C U8C U10G U11A C12G C13U,1.09
18,U7C U8C U11C C12G C13G,1.31
19,U7C U8C U11C C12G C13U,1.33
20,U7C U8C U11C C12G C13A,1.4
21,U7C U8C U10G U11G C12A C13G,1.11
22,U7C U8C U10G U11G C12A C13U,1.13
23,U7C U8C U10G U11G C12A C13A,1.14
24,U7C U8C U10C U11C C12U C13U,1.19

row,Variant,aptazyme ON/OFF ratio
1,U7C U8C U10C U11C C12U C13A,1.31
2,U7C U8C U10C U11C C12U C13G,1.15
3,U7C U8C U10C U11A C12U C13A,1.33
4,U7C U8C U10C U11A C12U C13U,1.29
5,U7C U8C U10C U11A C12U C13G,1.25
6,U7C U8C G9U U10G U11A C12U,1.17
7,U7C U8C G9U U10G U11A C12G,1.25
8,U7C U8C G9U U10G U11A C12A,1.37
9,U7C U8C U10C U11A C13A,1.33
10,U7C U8C U10C U11A C13G,1.18
11,U7C U8C U10C U11A C13U,1.31
12,U7C U8C U10G U11C C12G C13U,1.17
13,U7C U8C U10G U11C C12G C13G,1.13
14,U7C U8C U10G U11C C12G C13A,1.17
15,U7C U8C U10A C12U C13G,1.06
16,U7C U8C U10A C12U C13U,1.03
17,U7C U8C U10A C12U C13A,1.06
18,U7C U8C U10A U11G C12U C13U,1.15
19,U7C U8C U10A U11G C12U C13A,1.11
20,U7C U8C U10A U11G C12U C13G,1.15
21,U7C U8C U10A U11G C12A C13G,1.11
22,U7C U8C U10A U11G C12A C13U,1.12
23,U7C U8C U10A U11G C12A C13A,1.06
